We go through 14 variants from IntAct's records for PubMed 27754869.

The chains are these.
B1: Natural cytotoxicity triggering receptor 3 (Homo sapiens), O14931 (parent)
chain: MAWMLLLILIMVHPGSCALWVSQPPEIRTLEGSSAFLPCSFNASQGRLAIGSVTWFRDEVVPGKEVRNGTPEFRGRLAPLASSRFLHDHQAELHIRDVRGHDASIYVCRVEVLGLGVGTGNGTRLVVEKEHPQLGAGTVLLLRAGFYAVSFLSVAVGSTVYYQGKCLTWKGPRRQLPAVVPAPLPPPCGSSAHLLPPVPGG
partner: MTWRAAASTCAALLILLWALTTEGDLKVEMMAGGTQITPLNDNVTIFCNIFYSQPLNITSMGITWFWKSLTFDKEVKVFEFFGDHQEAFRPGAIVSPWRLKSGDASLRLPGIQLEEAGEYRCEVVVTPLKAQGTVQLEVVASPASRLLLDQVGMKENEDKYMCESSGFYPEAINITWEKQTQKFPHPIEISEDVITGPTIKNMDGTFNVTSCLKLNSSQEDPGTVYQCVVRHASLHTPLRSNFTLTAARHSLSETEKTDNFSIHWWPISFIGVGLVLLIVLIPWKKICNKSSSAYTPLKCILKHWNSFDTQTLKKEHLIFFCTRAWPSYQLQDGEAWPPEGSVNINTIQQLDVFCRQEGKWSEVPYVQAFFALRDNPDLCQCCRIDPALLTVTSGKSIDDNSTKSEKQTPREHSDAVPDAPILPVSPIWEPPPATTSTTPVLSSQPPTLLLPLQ

In this experiment the parent is B1. The conditions noted are these: with nr3l1_human NCR3LG1, Q68D85.
In the case of MAWMLLLILIMVHPGSCALWVSQPPEIRTLEGSSAFLPCSFNASQGRLAIGSVTWFRDEVVPGKEVRNGTPEFRGRLAPLASSRFLHDHQAELHIRDVRGHDASIYVCRVEVLGLGVGTGNGTRLVVEKEHPQLGAGTALLLRAGFYAVSFLSVAVGSTVYYQGKCLTWKGPRRQLPAVVPAPLPPPCGSSAHLLPPVPGG [V139A], the “effect of a mutation on the interaction” value is given as “increasing interaction strength”.
Next, MAWMLLLILIMVHPGSCALWVSQPPEIRTLEGSSAFLPCSFNASQGRLAIGSVTWFRDEVVPGKEVRNGTPEFRGRLAPLASSRFLHDHQAELHIRDVRGHDASIYVCRVEVLGLGVGTGNGTRLVVEKEAPQLGAGTVLLLRAGFYAVSFLSVAVGSTVYYQGKCLTWKGPRRQLPAVVPAPLPPPCGSSAHLLPPVPGG [H131A]: “decreasing interaction strength”; MAWMLLLILIMVHPGSCALWVSQPPEIRTLEGSSAFLPCSFNASQGRLAIGSVTWFRDEVVPGKEVRNGTPEFRGRLAPLASSRFLHDHQAELHIRDVRGHDASIYVCRVEVLGLGVGTGNGTRLVVEKEHPQLGAGTVLLARAGFYAVSFLSVAVGSTVYYQGKCLTWKGPRRQLPAVVPAPLPPPCGSSAHLLPPVPGG [L142A]: “increasing interaction strength”; MAWMLLLILIMVHPGSCALWVSQPPEIRTLEGSSAFLPCSFNASQGRLAIGSVTWFRDEVVPGKEVRNGTPEFRGRLAPLASSRFLHDHQAELHIRDVRGHDASIYVCRVEVLGLGVGTGNGTRLVVEKEHPQLGAGTVLLLAAGFYAVSFLSVAVGSTVYYQGKCLTWKGPRRQLPAVVPAPLPPPCGSSAHLLPPVPGG [R143A]: “decreasing interaction strength”.
Consider MAWMLLLILIMVHPGSCALWVSQPPEIRTLEGSSAFLPCSFNASQGRLAIGSVTWFRDEVVPGKEVRNGTPEFRGRLAPLASSRFLHDHQAELHIRDVRGHDASIYVCRVEVLGLGVGTGNGTRLVVEKEHPALGAGTVLLLRAGFYAVSFLSVAVGSTVYYQGKCLTWKGPRRQLPAVVPAPLPPPCGSSAHLLPPVPGG [Q133A], for which the “effect of a mutation on the interaction” value is on record as “decreasing interaction strength”.
Regarding MAWMLLLILIMVHPGSCALWVSQPPEIRTLEGSSAFLPCSFNASQGRLAIGSVTWFRDEVVPGKEVRNGTPEFRGRLAPLASSRFLHDHQAELHIRDVRGHDASIYVCRVEVLGLGVGTGNGTRLVVEKEHPQLGAGTVLALRAGFYAVSFLSVAVGSTVYYQGKCLTWKGPRRQLPAVVPAPLPPPCGSSAHLLPPVPGG [L141A], the “effect of a mutation on the interaction” value is recorded as “with no effect”.
On to MAWMLLLILIMVHPGSCALWVSQPPEIRTLEGSSAFLPCSFNASQGRLAIGSVTWFRDEVVPGKEVRNGTPEFRGRLAPLASSRFLHDHQAELHIRDVRGHDASIYVCRVEVLGLGVGTGNGTRLVVEKAHPQLGAGTVLLLRAGFYAVSFLSVAVGSTVYYQGKCLTWKGPRRQLPAVVPAPLPPPCGSSAHLLPPVPGG [E130A], for which the “effect of a mutation on the interaction” value was “decreasing interaction strength”.
Turning to MAWMLLLILIMVHPGSCALWVSQPPEIRTLEGSSAFLPCSFNASQGRLAIGSVTWFRDEVVPGKEVRNGTPEFRGRLAPLASSRFLHDHQAELHIRDVRGHDASIYVCRVEVLGLGVGTGNGTRLVVEKEHPQLAAGTVLLLRAGFYAVSFLSVAVGSTVYYQGKCLTWKGPRRQLPAVVPAPLPPPCGSSAHLLPPVPGG [G135A], the “effect of a mutation on the interaction” value is “decreasing interaction strength”.
As for MAWMLLLILIMVHPGSCALWVSQPPEIRTLEGSSAFLPCSFNASQGRLAIGSVTWFRDEVVPGKEVRNGTPEFRGRLAPLASSRFLHDHQAELHIRDVRGHDASIYVCRVEVLGLGVGTGNGTRLVVEKEHAQLGAGTVLLLRAGFYAVSFLSVAVGSTVYYQGKCLTWKGPRRQLPAVVPAPLPPPCGSSAHLLPPVPGG [P132A], the “effect of a mutation on the interaction” value is “with no effect”.
As for MAWMLLLILIMVHPGSCALWVSQPPEIRTLEGSSAFLPCSFNASQGRLAIGSVTWFRDEVVPGKEVRNGTPEFRGRLAPLASSRFLHDHQAELHIRDVRGHDASIYVCRVEVLGLGVGTGNGTRLVVEKEHPQLGAGTVALLRAGFYAVSFLSVAVGSTVYYQGKCLTWKGPRRQLPAVVPAPLPPPCGSSAHLLPPVPGG [L140A], the “effect of a mutation on the interaction” value is “increasing interaction strength”.
The value for MAWMLLLILIMVHPGSCALWVSQPPEIRTLEGSSAFLPCSFNASQGRLAIGSVTWFRDEVVPGKEVRNGTPEFRGRLAPLASSRFLHDHQAELHIRDVRGHDASIYVCRVEVLGLGVGTGNGTRLVVEKEHPQLGAATVLLLRAGFYAVSFLSVAVGSTVYYQGKCLTWKGPRRQLPAVVPAPLPPPCGSSAHLLPPVPGG [G137A] was “with no effect”.
Regarding MAWMLLLILIMVHPGSCALWVSQPPEIRTLEGSSAFLPCSFNASQGRLAIGSVTWFRDEVVPGKEVRNGTPEFRGRLAPLASSRFLHDHQAELHIRDVRGHDASIYVCRVEVLGLGVGTGNGTRLVVEAEHPQLGAGTVLLLRAGFYAVSFLSVAVGSTVYYQGKCLTWKGPRRQLPAVVPAPLPPPCGSSAHLLPPVPGG [K129A], the “effect of a mutation on the interaction” value is reported as “decreasing interaction strength”.
With MAWMLLLILIMVHPGSCALWVSQPPEIRTLEGSSAFLPCSFNASQGRLAIGSVTWFRDEVVPGKEVRNGTPEFRGRLAPLASSRFLHDHQAELHIRDVRGHDASIYVCRVEVLGLGVGTGNGTRLVVEKEHPQAGAGTVLLLRAGFYAVSFLSVAVGSTVYYQGKCLTWKGPRRQLPAVVPAPLPPPCGSSAHLLPPVPGG [L134A], the “effect of a mutation on the interaction” value is given as “decreasing interaction strength”.
The value for MAWMLLLILIMVHPGSCALWVSQPPEIRTLEGSSAFLPCSFNASQGRLAIGSVTWFRDEVVPGKEVRNGTPEFRGRLAPLASSRFLHDHQAELHIRDVRGHDASIYVCRVEVLGLGVGTGNGTRLVVEKEHPQLGAGAVLLLRAGFYAVSFLSVAVGSTVYYQGKCLTWKGPRRQLPAVVPAPLPPPCGSSAHLLPPVPGG [T138A] was “decreasing interaction strength”.
